Eight molecules from paper PMC10250209, “UV-DDB stimulates the activity of SMUG1 during base excision repair of 5-hydroxymethyl-2'-deoxyuridine moieties” can be followed below.

Series [1] deals with T1, SMUG1 WT (UniProt Q53HV7).
T1 sequence: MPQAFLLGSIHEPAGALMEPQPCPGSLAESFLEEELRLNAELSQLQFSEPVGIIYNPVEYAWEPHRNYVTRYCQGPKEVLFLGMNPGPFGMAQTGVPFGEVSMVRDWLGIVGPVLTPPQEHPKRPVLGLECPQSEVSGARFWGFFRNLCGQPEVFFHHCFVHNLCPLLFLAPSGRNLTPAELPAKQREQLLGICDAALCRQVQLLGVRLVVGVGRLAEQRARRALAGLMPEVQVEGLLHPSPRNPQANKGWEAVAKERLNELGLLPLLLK
Put plainly: EMSA. To be noted: apparent Kd; abasic substrate taken as THF37; tetrahydrofuran abasic analog (Z, written N) at position 20 of top strand, opposite T; EMSA: 8 nM DNA, 20 mM HEPES pH 7.5, 150 mM NaCl, 2 mM DTT (5 mM for SMUG1), 5% glycerol, 0.5 mg/ml BSA (0.5 mg/l [sic] for SMUG1), +/- 1.5 mM MgCl2, RT 20 min.

Series [2] deals with T1, SMUG1 WT. Put plainly: single-molecule DNA tightrope. To be noted: tetrahydrofuran abasic site every 2 kb, EMSA: 8 nM DNA, 20 mM HEPES pH 7.5, 150 mM NaCl, 2 mM DTT (5 mM for SMUG1), 5% glycerol, 0.5 mg/ml BSA (0.5 mg/l [sic] for SMUG1), +/- 1.5 mM MgCl2, RT 20 min.
Series [3] addresses single-strand selective monofunctional DNA glycosylase (SMUG1), His-tagged (UniProt Q53HV7). In words: single-molecule DNA tightrope assay, dual-colour Qdot co-localisation; 605 Qdot-labelled His-SMUG1 (2.6 nM) injected first, then 705 Qdot-labelled Flag-UV-DDB (3.1 nM), on DNA tightropes with one abasic (THF) site every 2 kb; 25 mM HEPES pH 7.5, 150 mM NaCl, 0.1 mg/ml BSA, 50 nM biotin, 1 mM DTT; RT.

Series [4] addresses T2, UV-DDB (DDB1-DDB2 heterodimer) (UniProt Q16531;Q92466 1-1140;1-427). Put plainly: EMSA; no Mg2+; EMSA: 8 nM DNA, 20 mM HEPES pH 7.5, 150 mM NaCl, 2 mM DTT (5 mM for SMUG1), 5% glycerol, 0.5 mg/ml BSA (0.5 mg/l [sic] for SMUG1), +/- 1.5 mM MgCl2, RT 20 min (30 min for displacement); 5% native gel, 1/2x TBE, 4 C. To be noted: protein: recombinant, tags: DDB1-6xHis, DDB2-Flag, copies: 1;1, label: 3'-6FAM on top strand, blunt.

Series [5] deals with T2, UV-DDB (DDB1-DDB2 heterodimer). Put plainly: EMSA; 1.5 mM Mg2+; EMSA: 8 nM DNA, 20 mM HEPES pH 7.5, 150 mM NaCl, 2 mM DTT (5 mM for SMUG1), 5% glycerol, 0.5 mg/ml BSA (0.5 mg/l [sic] for SMUG1), +/- 1.5 mM MgCl2, RT 20 min (30 min for displacement); 5% native gel, 1/2x TBE, 4 C. To be noted: protein: recombinant, tags: DDB1-6xHis, DDB2-Flag, copies: 1;1, label: 3'-6FAM on top strand, blunt.

T2 sequence (Q16531 whole entry, chain 1 of 2): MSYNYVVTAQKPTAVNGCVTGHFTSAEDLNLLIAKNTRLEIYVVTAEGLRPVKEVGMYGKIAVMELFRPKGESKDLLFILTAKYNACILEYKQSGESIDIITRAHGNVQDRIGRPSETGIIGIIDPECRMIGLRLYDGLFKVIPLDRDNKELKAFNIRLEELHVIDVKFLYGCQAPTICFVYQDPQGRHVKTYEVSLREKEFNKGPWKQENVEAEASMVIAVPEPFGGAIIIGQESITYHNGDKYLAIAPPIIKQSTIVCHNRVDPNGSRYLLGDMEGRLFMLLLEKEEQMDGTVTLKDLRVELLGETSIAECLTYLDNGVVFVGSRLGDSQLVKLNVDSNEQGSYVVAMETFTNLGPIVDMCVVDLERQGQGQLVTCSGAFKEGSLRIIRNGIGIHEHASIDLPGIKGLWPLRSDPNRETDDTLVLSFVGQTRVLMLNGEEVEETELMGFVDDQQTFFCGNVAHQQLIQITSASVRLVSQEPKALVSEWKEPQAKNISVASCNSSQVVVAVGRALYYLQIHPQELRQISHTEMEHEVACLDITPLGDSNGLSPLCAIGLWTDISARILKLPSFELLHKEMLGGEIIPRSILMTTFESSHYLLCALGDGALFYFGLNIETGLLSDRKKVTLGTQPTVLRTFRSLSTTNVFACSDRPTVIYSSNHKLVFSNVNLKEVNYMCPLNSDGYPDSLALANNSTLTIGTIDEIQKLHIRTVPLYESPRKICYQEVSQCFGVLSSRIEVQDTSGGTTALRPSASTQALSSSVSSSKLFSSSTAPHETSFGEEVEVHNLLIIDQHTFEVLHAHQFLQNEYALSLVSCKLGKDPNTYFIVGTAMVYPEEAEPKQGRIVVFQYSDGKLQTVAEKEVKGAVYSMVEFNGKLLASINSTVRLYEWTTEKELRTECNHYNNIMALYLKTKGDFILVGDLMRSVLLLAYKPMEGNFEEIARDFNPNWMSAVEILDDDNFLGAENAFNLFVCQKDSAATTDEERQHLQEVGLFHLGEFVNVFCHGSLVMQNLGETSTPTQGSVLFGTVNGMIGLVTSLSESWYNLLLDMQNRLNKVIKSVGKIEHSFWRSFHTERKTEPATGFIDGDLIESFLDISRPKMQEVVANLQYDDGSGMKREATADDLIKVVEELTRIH
T2 sequence (Q92466 whole entry, chain 2 of 2): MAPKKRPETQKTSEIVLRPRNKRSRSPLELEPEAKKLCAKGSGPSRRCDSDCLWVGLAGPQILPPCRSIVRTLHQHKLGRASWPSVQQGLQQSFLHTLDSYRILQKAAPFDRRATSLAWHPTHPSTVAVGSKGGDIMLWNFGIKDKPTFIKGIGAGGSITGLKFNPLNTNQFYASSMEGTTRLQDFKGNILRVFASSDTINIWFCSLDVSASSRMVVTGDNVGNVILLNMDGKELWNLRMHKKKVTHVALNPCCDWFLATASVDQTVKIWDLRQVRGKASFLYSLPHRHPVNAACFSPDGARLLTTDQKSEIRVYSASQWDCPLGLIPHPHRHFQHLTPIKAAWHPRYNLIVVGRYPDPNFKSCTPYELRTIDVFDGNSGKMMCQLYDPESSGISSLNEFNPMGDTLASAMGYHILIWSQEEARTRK

In the case of “CCGAGTCATTCCTGCAGCGNGTCCATGGGAGTCAAAT / ATTTGACTCCCATGGACTCGCTGCAGGAATGACTCGG [THF37]”, the Kd in series [1] came to 65 nM. Regarding “DNA tightrope with one THF site every 2 kb”, the binding was 580 s in series [2] (bound half-life with equimolar unlabeled UV-DDB, Qdot-labeled SMUG1) and 4950 s in series [2] (bound half-life, SMUG1 alone, Qdot-labeled). With “UV-damaged DNA-binding protein (UV-DDB), DDB1-6xHis/DDB2-Flag heterodimer (from UniProt Q16531 1-1140; Q92466 1-427) (complex)”, the percent of all particles co-localised on abasic DNA in series [3] was determined as 15.6%.

B1: dU:dA37 (dsDNA)
DNA 1: CCGAGTCATTCCTGCAGCGAGUCCATGGGAGTCAAAT
DNA 2: ATTTGACTCCCATGGACTCGCTGCAGGAATGACTCGG
modifications: dU at position 22 of top strand, opposite dA
Turning to B1, the Kd was determined as 15 ± 1 nM in series [4] and 52 ± 3.4 nM in series [5].

B2: dU:dG37 (dsDNA)
DNA 1: CCGAGTCATTCCTGCAGCGAGUCCATGGGAGTCAAAT
DNA 2: ATTTGACTCCCATGGGCTCGCTGCAGGAATGACTCGG
modifications: dU at position 22 of top strand, opposite dG
As for B2, the Kd turned out to be 18 ± 1.6 nM in series [4] (U:G mispair) and 21 ± 2.1 nM in series [5] (U:G mispair).

B3: 5-hmdU:dA37 (dsDNA)
DNA 1: CCGAGTCATTCCTGCAGCGAGUCCATGGGAGTCAAAT
DNA 2: ATTTGACTCCCATGGACTCGCTGCAGGAATGACTCGG
modifications: 5-hydroxymethyl-dU (X, written U) at position 22 of top strand, opposite dA
For the molecule B3, the Kd stood at 14 ± 1.1 nM in series [4] and 48 ± 3 nM in series [5].

B4: 5-hmdU:dG37 (dsDNA)
DNA 1: CCGAGTCATTCCTGCAGCGAGUCCATGGGAGTCAAAT
DNA 2: ATTTGACTCCCATGGGCTCGCTGCAGGAATGACTCGG
modifications: 5-hydroxymethyl-dU (X, written U) at position 22 of top strand, opposite dG
B4: the Kd in series [4] (5-hmdU:G mispair) amounted to 16 ± 1.5 nM; in series [5] (5-hmdU:G mispair), 27 ± 1.9 nM.

B5: UD37 (undamaged) (dsDNA)
DNA 1: CCGAGTCATTCCTGCAGCGAGTCCATGGGAGTCAAAT
DNA 2: ATTTGACTCCCATGGACTCGCTGCAGGAATGACTCGG
Turning to B5, the results for the Kd in series [4] and in series [5] were 31 ± 2 nM and 125 ± 9.1 nM, respectively.
